# According to the RNAGym collection of RNA variant scans (doi:10.7554/elife.90254):
# B1: LINE1-full (parent)
# chain: UACGUAGGUGGUUUUCCCCUGAUAGUGCUAAGGGGGCCUGGAAGUUUGGACUGGGCAGAGCUCAACACAGCGUGGCAAAGUGGCUGUGGCUAGACUGCCUCUCUGGAUUCCUCGUCACUCAGCAGGGCAUCUCUGAGAGAAAUGCC
# Variants of: B1
# Experiment: self-cleavage, relative activity (ratio to wild type); higher = more cleavage; in vitro, sequencing; the parent is a self-cleaving ribozyme
row,Variant,self-cleavage
1,U73A A78G,0.34
2,U73A A78U,1.94
3,U73A A78C,2.67
4,U73G U130C,2.25
5,A77G C113A,2.1
6,A77G C113U,2.28
7,A77G A138G,2.3
8,U73G U132C,1.58
9,G72A U134A,1.15
10,A77G G88A,0.09
11,U73A C84U,0.16
12,G72C A136G,1.41
13,G72U A121U,1.08
14,G72U A121G,1.32
15,U73C U91A,0.57
16,G72U A142G,0
17,U73C U143C,2.13
18,U73C U143A,1.63
19,U73C A129U,2.11
20,U73C U130C,1.81
21,U73C U130A,1.2
22,A77G A121G,1.69
23,U73A A142G,1.57
24,U73A A142U,1.41

row,Variant,self-cleavage
1,C76U U100C,2.91
2,C76U A77U,2.05
3,A77G C90A,0.03
4,G75A U134A,1
5,G75A A136G,1.35
6,G72U U134C,1.24
7,A77G A129G,2.21
8,G75A A78G,0.7
9,U73A C101U,2.61
10,U73C U81A,2.36
11,U73C U81G,2.04
12,U73A A79U,2.48
13,U73A A107G,2.03
14,U73C A79U,1.65
15,G74U A77G,1.01
16,U73A C95G,0.06
17,U73C G88A,0.06
18,G72A C90G,0.03
19,A77C U91A,0.38
20,A77G A141G,2.25
21,A77G A141U,1.89
22,U73A U100A,0.97
23,U73A U100C,2.71
24,G72A U115C,0.9

row,Variant,self-cleavage
1,G75A U104A,0.87
2,G75A U104C,1.43
3,A77C U100C,1.53
4,U73A A92U,0.8
5,U73A A92G,0.13
6,G72A A117U,1.54
7,A77C U96C,0.09
8,A77G C98G,0.21
9,A77G C98A,0.23
10,U73C G127U,0.92
11,A77C U132C,1.19
12,U73C A117U,2.34
13,U73C A117G,1.23
14,G74U A92G,0.06
15,U73C G74U,1.64
16,G74A G86A,0
17,U73A U132A,1.73
18,U73A U132C,1.53
19,U73A G125A,1.92
20,G74U U130C,1.64
21,U73C C118A,1.46
22,G74A U87A,0.07
23,C76U A136G,1.75
24,U73C A92G,0.16

row,Variant,self-cleavage
1,C76A A136G,1.79
2,G75A G86C,0.07
3,G74A C84U,0.07
4,G72A U104A,0.93
5,C76U U96C,0.13
6,C76U U96A,0.05
7,C76G,2.01
8,C76U,2.18
9,C76A,1.71
10,U73C G86U,0.03
11,C76A G106U,1.2
12,C76U U112A,2.4
13,U73A U108C,2.23
14,U73A U108G,0.44
15,C76U C98U,0.61
16,U73G U115C,2.26
17,G74C U102C,0.88
18,U73A A117U,1.81
19,G72U U143C,1.02
20,A77G A79G,0.95
21,U73A G83A,0.53
22,G74U A78U,2.2
23,U73C C90U,0.01
24,U73C C90G,0.01

row,Variant,self-cleavage
1,C71U C76U,1.15
2,G75A U130C,0.95
3,U73C C123U,1.05
4,U73A C111U,1.54
5,U73C A136G,1.64
6,U73G A121G,2.45
7,G75C A77U,0.75
8,G75C A77G,0.8
9,U73G U134A,0.88
10,U73C G137U,2.46
11,G74A A117C,1.63
12,C71U U130C,1
13,G75U C90U,0.03
14,A77C G93A,0.06
15,U73C C98U,0.36
16,A77C U108C,1.6
17,A77G A136G,2.64
18,A77G A136U,1.92
19,U73A U91C,0.19
20,A77G G89A,0.03
21,U73C A77G,2.78
22,G75A U87C,0.12
23,C76U A141G,1.18
24,C76U A141C,1.29

row,Variant,self-cleavage
1,G75A A117U,1.53
2,G75C U108C,0.77
3,G72A U96A,0.04
4,U73C U85A,0.08
5,G72A A77U,1.44
6,G75A U115A,1.12
7,C71U C99G,0.12
8,G74U U102C,1.42
9,G75U U104C,1.32
10,C71U U143C,0.64
11,U73A U109C,1.05
12,C76U U143A,2.12
13,G74A A140U,1.31
14,G74A A140G,1.22
15,G75U U85C,0.07
16,G74A A92U,0.1
17,G75A G83A,0.76
18,G74A A79G,0.8
19,G74A A79U,2.06
20,G72A U87C,0.25
21,C71U C90A,0.04
22,G72A G137A,0.46
23,U73C A107G,2.23
24,U73C U96A,0.14

row,Variant,self-cleavage
1,U73C U96C,0.11
2,U73C U96G,0.19
3,U73A C99A,0.92
4,G74A A129G,1.53
5,G74A A129U,1.09
6,A77G A117G,2.32
7,U73A A136G,1.61
8,C76A A141G,2.26
9,C71U C120U,2.76
10,A77G C103A,2.24
11,A77G C103U,1.99
12,A77G C128G,1.86
13,A77C A121G,1.55
14,U73A G127A,1.58
15,U73G A77G,0.98
16,U73A A141G,1.74
17,G74U A142G,1.63
18,G72A U102C,0.46
19,G74A U115A,1.45
20,C76A U134A,0.84
21,G72A A94U,0.06
22,U73C C146A,2.24
23,U73C C146U,1.04
24,A77G A94G,0.68

row,Variant,self-cleavage
1,A77G A94U,0.61
2,U73C A138G,2.26
3,G72U U91C,0.49
4,G72U U91A,0.49
5,U73A G105A,2.29
6,A77G G125A,2.43
7,A77G G125U,2.41
8,U73C C120A,1.97
9,G72C C90U,0.03
10,U73A U115A,1.66
11,U73G U85G,0.06
12,U73A U87A,0.07
13,G74A U108C,1.48
14,G72A U143A,1.85
15,A77C U115C,0.6
16,U73C G126U,1.85
17,U73C G126A,2.44
18,U73G C84U,0.17
19,U73C G83A,1.63
20,A77C U85A,0.18
21,U73A A140U,1.88
22,G72U U81C,1.28
23,A77C A124G,0.32
24,A77C U143C,1.12

row,Variant,self-cleavage
1,U73C G122A,1.19
2,G72A A78U,1.81
3,G72A A78G,1.14
4,G74U A107G,0.51
5,G74A A142G,1.1
6,U73C U132A,1.25
7,U73C U132C,2.09
8,A77C A140G,1.16
9,U73C G135A,1.07
10,C76U U130C,2.22
11,G75A U132A,1.15
12,G72A U85C,0.08
13,G72A G88A,0.03
14,C76A A78G,1.68
15,U73A C120U,1.79
16,A77C U102A,1.37
17,G74U G114A,1.21
18,G72A,1.3
19,G72U,0.9
20,G72C,1.18
21,G75U U81C,0.83
22,C71U C111U,0.82
23,G75U A142U,0.84
24,G75A A124G,0.72

row,Variant,self-cleavage
1,G74U U134C,1.88
2,G74A A121G,1.43
3,G75C U134C,0.58
4,C76U C101A,1.6
5,G74A U130G,1.51
6,C76U A142G,2.37
7,G75C A142G,0.85
8,U73G A142G,1.2
9,G74U A140G,1.99
10,C76A U132C,2.08
11,C76U A94C,0.11
12,U73C G139U,2.83
13,U73C A94U,0.69
14,U73C A94C,0.32
15,G75A G126A,0.87
16,G75A U102A,1.36
17,U73G U91C,0.29
18,A77G C110U,0.71
19,G72A G122A,1.6
20,A77G G97U,0.08
21,A77G G97C,0.65
22,C76U U115C,2.12
23,C71U U96C,0.05
24,C71U U96A,0.04

row,Variant,self-cleavage
1,U73A U143C,1.4
2,U73A U143A,1.75
3,G74A A94U,0.17
4,U73A C113U,1.41
5,U73C U119C,2.11
6,U73C U119A,1.64
7,C76U A92G,0.06
8,U73A G93U,0.03
9,G74A U119C,1.71
10,G74C A140G,1.53
11,U73A G144A,1.4
12,U73C U112C,1.65
13,U73C U112A,1.41
14,A77G G93U,0.05
15,U73C C145A,1.44
16,G74A U85A,0.05
17,C71U U132C,1.05
18,A77G C133U,1.99
19,U73A A77G,2.29
20,A77G A124U,1.84
21,A77G A124G,1.9
22,C76U G137U,1.87
23,C76U A107G,2.53
24,C76U U132A,2.54

row,Variant,self-cleavage
1,U73A U96A,0.05
2,U73A U96C,0.1
3,G74A U102G,0.56
4,U73C C99U,1.06
5,U73C U115A,1.58
6,U73G A136U,0.81
7,U73G U87A,0.03
8,G72U U115C,1.31
9,A77G A107G,2.08
10,C71U G75A,0.59
11,G72U U87A,0.03
12,U73C A121C,0.54
13,U73C A121G,2.05
14,U73A G137A,1.7
15,U73A A94C,0.05
16,U73A A94G,0.35
17,C76U U119C,2.91
18,G72U U73C,0.9
19,G72U A129G,1.08
20,G74A U100A,0.7
21,C71U U87C,0.04
22,U73A G97A,0.11
23,G74C C99U,0.61
24,G74A A124G,0.51

row,Variant,self-cleavage
1,G74A A124C,1.58
2,G75A A140G,0.88
3,G74U A121U,1.02
4,U73C U108C,0.95
5,U73A U134C,1.46
6,U73A U134G,0.45
7,U73A U134A,1.28
8,U73C C113U,1.85
9,A77G,2.12
10,A77C,0.98
11,A77C G126A,1.25
12,G75A U109C,1.1
13,G75A U109A,0.99
14,U73A C118U,1.25
15,G72A U130C,1.85
16,C71U U115C,1.12
17,C71U U115G,1.23
18,U73A A124U,1.4
19,U73C U134G,1.7
20,U73C C128A,0.94
21,G74A U104C,1.34
22,U73C G125A,0.8
23,U73C G125C,2.47
24,G74U U91A,0.57

row,Variant,self-cleavage
1,G74U U91C,0.59
2,A77G G83A,1.75
3,G72C U108G,0.96
4,C76U A129G,2.87
5,G74A A138G,1.26
6,G74A U96A,0.07
7,G75A,1.11
8,G75C,0.6
9,G75U,0.62
10,C76U A79G,2.1
11,C76A U87C,0.38
12,C76A U87G,0.11
13,G75U G139A,0.89
14,C76A A142G,1.87
15,U73C A78C,0.77
16,U73C A78G,1.12
17,U73G A124G,0.78
18,U73G A124U,1.36
19,C71U A140G,0.9
20,C76U A117U,2.41
21,C76A U102C,1.39
22,G72U U85G,0.1
